The record followed here is US20130252987A1, “METHOD OF REGULATING PLASMA LIPOPROTEINS” (MCMASTER UNIVERSITY, priority 2010, published 2013).

Format in all cases: cell-based, human
Data set [1] has as its system HepG2 cells. The experiment in a line: FPLC lipoprotein profile of HepG2 cell media. The settings on record: 50 ng/mL, 24 hour. The procedure: (§1) Lipids from HepG2 cell extracts were quantified by gas chromatography (GC) as described in Sahoo et al. (J. Lipid Res. 45:1122-1131). Briefly, cell extracts were incubated with phospholipase C (Sigma, ON) to remove polar head groups, then extracted in the presence of internal standard by the method of Folch et al. (J Biol Chem 226:497-509). Extracted lipids were passed through a sodium sulfate column to remove aqueous contaminants, and derivatized with Sylon BFT (Supelco, ON) to cap reactive hydroxyl and carboxyl groups. Derivatized lipids were dissolved in hexane and injected onto a Zebron ZB-5 column (Phenomenex, Torrance, Calif.) in an Agilent 6890 GC instrument. Lipoprotein Profiles. HepG2 media from 6-10 cm plates was collected and concentrated using an Amicon Centriprep concentrator 50 K and lipoprotein classes separated by fast protein liquid chromatography (FPLC) on a Superose 6 10/30 gel filtration column (Amersham, UK) followed by inline post-column reaction with either Infinity Triglyceride or Infinity Cholesterol reagent (Thermo Scientific, West Palm Beach, Fla.) and measurement of absorbance @ 500 nm.
The characteristics of the apoB-containing lipoprotein particles produced as a result of treatment of human hepatocytes with human resistin was determined. […]

Data set [2] relates to HepG2 cells. Put plainly: insulin signaling pathway protein expression, Western blot. The settings on record: 50 ng/mL, 24 hours. An excerpt: (§2) Horseradish peroxidase-conjugated antibodies (BioRad, Hercules, Calif.) were used as secondary antibodies.
Another important regulator of hepatocyte apoB/VLDL assembly and stability is the intracellular insulin signaling pathway.

Data set [3] has as its system HepG2 cells. Put plainly: gas chromatography of hepatocyte lipids. The settings on record: 50 ng/mL, 24 hours. The procedure:
as §1
To quantify the hepatocyte lipid changes induced by human resistin, gas chromatography (GC) analyses of lipids extracted from harvested hepatocytes either untreated or treated with human resistin (50 ng/mL) for 24 hours was performed.

In data set [4] the test system is HepG2 cells. The experiment in a line: cell viability, tryphan blue staining. As to conditions: 50 ng/mL or 100 ng/mL, 24 or 48 hours. The procedure: Cell viability was determined with 0.4% tryphan blue (Sigma-Aldrich, ON) staining and calculated using the following formula: % Cell Viability=(number of unstained (living) cells/Total number of cells)×100.
The next question was whether this amount of human resistin is toxic to hepatocytes. Tryphan blue staining of HepG2 cells upon 50 ng/mL of resistin treatment to determine cell viability was performed.

Data set [5] deals with HepG2 cells. The experiment in a line: electron microscopy of secreted VLDL fraction. The settings on record: 50 ng/mL, 24 hours. The procedure:
The VLDL lipoprotein fraction was isolated from HepG2 cell media via ultracentrifugation at density of 1.006 g/mL using a Beckman Optima TL ultracentrifuge and 100.4 TLA rotor (Beckman Coulter, Brea, Calif.). Mean particle size for VLDL was then determined using the Hitachi 7000 electron microscope equipped with a AMT XR-60 digital camera. The fixation process for electron microscopy utilized 1% Os04 in a phosphate buffer at pH 7.4 applied to the VLDL fraction for a 30 minute exposure. A small drop of this solution was placed on a 400 mesh copper grid coated with a carbon film and allowed to stand for 3 minutes or until sample has dried. The fixed VLDL were placed on the electron microscope grid for viewing and digitizing. The captured images were taken at 75 KV using a beam current of 25 uA. Digital Images of the VDL were taken at about 50,000×. The mean particle size was then determined by importing the digital images into NIH image J software.
The secretion of apoB protein by HepG2 cells increased markedly by approximately 8-fold with human resistin treatment, along with the observed increases in secreted VLDL lipids. […] Furthermore, the quantity of VLDL particles found in a representative […] area was increased markedly in resistin-treated samples by a mean of 10-fold.

The test system of data set [6] is HepG2 cells. The experiment in a line: apoB and apolipoprotein expression and secretion, immunoprecipitation and Western blot. The procedure:
During experiments in which HepG2 cells were treated with human recombinant resistin (Calbiochem, UK) the media was changed to 1% FBS-containing DMEM. […] In separate experiments, cells were treated with the fatty acid, oleate (100 μM) (Sigma, ON) for 24 hours, with or without human resistin (50 ng/mL) for 24 hours. In other experiments, cells were treated with the 10 μM lactacystin (Cayman Chemical, Ann Arbor, Mich.) for 24 hours to assess intracellular proteosome-dependent apoB protein degradation.
as §2
All of the experiments to follow were performed three times and representative results are shown. […] Immunoprecipitation on cell lysates and media, followed by Western blots to detect the cellular expression and secretion of human apoB protein were then performed. The constitutively expressed cellular proteins, beta-actin and albumin were used as internal immunoblot controls to confirm equal protein loading in the apoB immunoblots of cell lysates and media, respectively. […] Treatment with 25 ng/mL resistin further stimulated apoB secretion by approximately 250% compared with untreated cells (FIG. 1A).

B1: human resistin: recombinant lyophilized purified human resistin (Calbiochem); cysteine-rich cytokine, single 12 kDa band (protein)
chain: KTLCSMEEAINERIQEVAGSLIFRAISSIGLECQSVTSRGDLATCPRGFAVTGCTCGSACGSWDVRAETTCHCQCAGMDWTGARCCRVQP
Turning to B1, in the data set with HepG2 cells [1], the “increase in secreted VLDL triglycerides and cholesterol relative to control untreated cells” value is 8-9 fold; the “lipid contents of the secreted LDL or HDL fractions” value is “virtually no change”. Moreover, the “decrease in expression of IRS-2, ERK, phosphorylated ERK, Akt and serine and threonine phosphorylated Akt” value in the data set with HepG2 cells [2] is on record as 20-30%. For the same molecule, in the data set on HepG2 cells [3], the “increase in cholesteryl ester content” value was 18%, the “increase in free cholesterol content” value is 3% and the “increase in triglyceride content” value worked out at 24%. Moreover, the hepatocyte viability result with HepG2 cells [4] is listed as “no marked reduction”. For the same molecule, in the data set on HepG2 cells [5], the “increase in quantity of VLDL particles in a representative 100 cm^2 area” value came out at 10 fold. Further, the “increase of hepatic apoB cellular protein expression and secretion versus control, untreated HepG2 cells” value in the data set on HepG2 cells [6] (10 ng/mL resistin, 24 hours) is recorded as approximately 100%. For the same molecule, the “stimulation of apoB secretion compared with untreated cells” value in the data set on HepG2 cells [6] (25 ng/mL resistin, 24 hours) is “approximately 250%”. For the same molecule, in the data set with HepG2 cells [6] (50 ng/mL resistin added to 100 μM oleate, 24 hours), the “effect on the stimulatory effect of oleate on hepatic cellular apoB expression and secretion” value is “doubled”. Further, the “apoB expression or secretion on addition to lactacystin” value in the data set on HepG2 cells [6] (50 ng/mL resistin added to lactacystin 10 μM, 24 hours) is reported as “did not further increase”. In addition, in the data set on HepG2 cells [6] (50 ng/mL resistin, 24 hours), the “increase in cellular apoB protein expression versus untreated cells” value is recorded as “approximately 3500%” and the “increase in secreted apoB versus untreated cells” value was determined as 1000%. Also, in the data set with HepG2 cells [6] (50 ng/mL resistin, after 48 hours, no restimulation), the “apoB secretion above untreated HepG2 cells” value amounted to 100%. In addition, in the data set on HepG2 cells [6] (50 ng/mL resistin, time course), the “earliest time of increase in apoB protein secretion into HepG2 cell media” value is 4 h and the “time of maximal cumulative effect on apoB protein expression in the media” value was determined as 24 h. Further, in the data set with HepG2 cells [6] (50 ng/mL, 24 hour), the “increase in secretion of apoB protein by HepG2 cells” value is recorded as “approximately 8 fold”. Moreover, in the data set with HepG2 cells [6] (50 ng/mL, versus untreated), the “apoCI or CIII protein expression” value was “no difference” and the “expression of secreted apoE” value was “increase”. Moreover, in the data set with HepG2 cells [6] (100 ng/mL resistin, 24 hours), the “cellular apoB expression and secretion versus that produced by 50 ng/mL resistin” value is “reduced cellular apoB expression markedly”.
